# Source: publication PMC11447106 (Clinical and Translational Medicine, 2024)
# Substitutions are numbered along the chain they refer to. Numbers in names are those of the source.
# T1: GST-OGT^WT (UniProt O15294-3 1-1036)
# T1 construct: OGT, wild type; The printed Thr444 fits the 1036-residue isoform
# T1 sequence (looked up): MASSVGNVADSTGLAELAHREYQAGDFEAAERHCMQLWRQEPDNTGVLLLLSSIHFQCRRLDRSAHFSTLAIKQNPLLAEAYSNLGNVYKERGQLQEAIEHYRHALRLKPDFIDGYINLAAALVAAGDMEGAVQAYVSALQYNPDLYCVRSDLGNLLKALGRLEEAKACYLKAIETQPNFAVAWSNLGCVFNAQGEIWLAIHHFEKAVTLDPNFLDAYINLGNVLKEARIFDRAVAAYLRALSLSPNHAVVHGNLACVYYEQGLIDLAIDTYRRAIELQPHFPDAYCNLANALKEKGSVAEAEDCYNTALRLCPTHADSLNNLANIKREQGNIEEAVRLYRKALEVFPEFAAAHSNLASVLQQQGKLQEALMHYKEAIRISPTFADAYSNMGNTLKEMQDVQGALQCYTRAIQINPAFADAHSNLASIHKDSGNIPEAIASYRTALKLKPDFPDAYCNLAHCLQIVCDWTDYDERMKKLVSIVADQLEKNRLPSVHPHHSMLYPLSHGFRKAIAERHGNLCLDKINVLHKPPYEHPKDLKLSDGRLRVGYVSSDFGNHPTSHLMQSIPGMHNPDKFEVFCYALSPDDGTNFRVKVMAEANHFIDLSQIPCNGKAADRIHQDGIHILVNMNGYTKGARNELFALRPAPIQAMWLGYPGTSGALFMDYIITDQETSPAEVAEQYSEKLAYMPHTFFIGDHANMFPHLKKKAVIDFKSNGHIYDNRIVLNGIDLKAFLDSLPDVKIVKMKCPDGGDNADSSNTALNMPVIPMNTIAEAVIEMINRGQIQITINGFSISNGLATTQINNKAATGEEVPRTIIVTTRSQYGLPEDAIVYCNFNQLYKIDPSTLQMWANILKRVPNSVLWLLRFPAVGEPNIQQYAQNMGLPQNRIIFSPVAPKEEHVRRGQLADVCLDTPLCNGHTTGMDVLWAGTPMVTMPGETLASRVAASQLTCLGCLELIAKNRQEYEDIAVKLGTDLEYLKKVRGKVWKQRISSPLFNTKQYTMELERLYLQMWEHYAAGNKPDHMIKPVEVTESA
# T2: GST-OGT^T444E (UniProt O15294-3 1-1036, T444E)
# T2 construct: OGT with T444E (mimics phosphorylation at Thr444); The printed Thr444 fits the 1036-residue isoform
# T2 sequence (looked up): T1 sequence (looked up) with T444E
# B1: NRF2: S103A (protein)
# parent chain: MMDLELPPPGLPSQQDMDLIDILWRQDIDLGVSREVFDFSQRRKEYELEKQKKLEKERQEQLQKEQEKAFFAQLQLDEETGEFLPIQPAQHIQSETSGSANYSQVAHIPKSDALYFDDCMQLLAQTFPFVDDNEVSSATFQSLVPDIPGHIESPVFIATNQAQSPETSVAQVAPVDLDGMQQDIEQVWEELLSIPELQCLNIENDKLVETTMVPSPEAKLTEVDNYHFYSSIPSMEKEVGNCSPHFLNAFEDSFSSILSTEDPNQLTVNSLNSDATVNTDFGDEFYSAFIAEPSISNSMPSPATLSHSLSELLNGPIDVSDLSLCKAFNQNHPESTAEFNDSDSGISLNTSPSVASPEHSVESSSYGDTLLGLSDSEVEELDSAPGSVKQNGPKTPVHSSGDMVQPLSPSQGQSTHVHDAQCENTPEKELPVSPGHRKTPFTKDKHSSRLEAHLTRDELRAKALHIPFPVEKIINLPVVDFNEMMSKEQFNEAQLALIRDIRRRGKNKVAAQNCRKRKLENIVELEQDLDHLKDEKEKLLKEKGENDKSLHLLKKQLSTLYLEVFSMLRDEDGKPYSPSEYSLQQTRDGNVFLVPKSKKPDVKKN
# B2: NRF2: OGT knockdown (protein)
# parent chain: B1 parent chain
# B3: NRF2: T350A (protein)
# parent chain: B1 parent chain
# B4: His-NRF2 (natural protein, UniProt Q16236 1-605, looked up)
# chain: B1 parent chain
# notes: NRF2; Construct details are said to be in the Supplementary Information
# B5: NRF2: S111A (protein)
# parent chain: B1 parent chain
# B6: NRF2: S310A (protein)
# parent chain: B1 parent chain
# Experiments:
# [1] = cisplatin IC50 in cells; conditions: glycan lost; control: NCI-H1299 NRF2-WT cells
# [2] = H2O2-induced ARE luciferase activity; conditions: glycan lost; control: NCI-H1299 NRF2-WT cells + H2O2
# [3] = NRF2 level in xenografts, IHC and WB; conditions: glycan lost; control: NCI-H1299 NRF2-WT xenografts
# [4] = RT-PCR of NRF2 target genes in xenografts; conditions: glycan lost; control: NCI-H1299 NRF2-WT xenografts
# [5] = endogenous NRF2 stability by WB, knock-in cells; conditions: glycan lost; control: NCI-H1299 NRF2-WT cells
# [6] = H2O2-induced nuclear translocation, fractionation; conditions: glycan lost; control: NCI-H1299 NRF2-WT cells + H2O2
# [7] = xenograft growth under cisplatin 1.5 or 3.0 mg/kg; conditions: glycan lost; control: NCI-H1299 NRF2-WT xenografts + cisplatin
# [8] = CHX chase, Flag-NRF2 remaining; NCI-H1299, HEK293T; conditions: glycan lost; control: Flag-NRF2WT
# [9] = WB of NRF2 after OGT KD or overexpression; conditions: glycan lost; control: control NCI-H1299 cells
# [10] = target: T1, GST-OGT^WT; test: pull-down; in vitro GST pull-down; GST-OGT^WT or GST-OGT^T444E with His-NRF2; conditions: both partners purified
# [11] = target: T2, GST-OGT^T444E; test: as above; conditions: both partners purified
binder,measurement,setting,value
B1,"other: cisplatin resistance, IC50",[1],"decreases, 19.53 vs 31.83"
same,other: transcriptional activity,[2],decreases
same,expression_or_secretion,[3],decreases
same,other: transcriptional activity,[4],decreases
same,degradation_or_half_life,[5],decreases
same,localisation_or_trafficking,[6],decreases
same,other: cisplatin resistance,[7],decreases
same,degradation_or_half_life,[8],decreases
B2,expression_or_secretion,[9],decreases
B3,degradation_or_half_life,[8],no change
B4,binding result,[10],binds
same,binding result,[11],binds
B5,degradation_or_half_life,[8],no change
B6,degradation_or_half_life,[8],no change
